Data on 28 sequences can be found in the supplement of paper PMC9170038.

In the data set the test system is MS2 coat protein. Nature of the data set: apparent KD of MS2 coat protein; designed switch direction (-1 OFF switch, 1 ON switch): -1; higher = weaker reporter binding. In outline:
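Designed RNA switches with common flanks were transcribed on Illumina chips by stalled E. coli RNA polymerase and titrated with SNAP-549-labelled MS2 coat protein, from 0.7 or 1.5 nM doubling to 3 µM, in Tris-HCl pH 7.5 buffer with KCl, MgCl2, BSA, DTT, tRNA and Tween-20. Steps lasted 0.8–1.5 h (lowest) to 10–20 min (highest). Titrations ran without input, with 200 uM small-molecule ligand, or with an oligonucleotide input. Normalised cluster fluorescence was curve-fitted, and apparent KD is the per-design median over clusters.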

Where [1] appears, read: input ligand: microRNA oligo, concentration not stated.

Consider “ACAUGAGGAUCACCCAUGUGAAAAGAAUGGCUGACACAGAGAUAGGAUAUAUGUGCAUAUCAAACAUAGAAGGGUCAUAACUGG [Deportation 84 - Jieux - Exclusion NG 3] (Eterna round: R96, puzzle: Exclusion NG 3)”, for which the “apparent KD of MS2 coat protein” value amounted to 28.4 nM (input ligand: FMN 200 uM), 29.4 nM under setting [1] and 30.5 nM (input ligand: none).

Regarding “ACAUGAGGAUCACCCAUGUGACAACAAUGGCUGAUAUAGAAACAGGAUAUUCGUGAAUAUCUAACGAAGAAGGGUUAUGACUGG [Deportation 66 - Jieux - Exclusion NG 3] (Eterna round: R96, puzzle: Exclusion NG 3)”, the “apparent KD of MS2 coat protein” value (input ligand: FMN 200 uM) came to 50.4 nM, the “apparent KD of MS2 coat protein” value under setting [1] stood at 43.1 nM and the “apparent KD of MS2 coat protein” value (input ligand: none) amounted to 54.1 nM.

Consider “ACAUGAGGAUCACCCAUGUGACAAGAAUGGCUGAUAAAGAGACAGGAUAUAGGUGCAUAUCUAACCUAGAAGGGUCAUGACUGG [Deportation 74 - Jieux - Exclusion NG 3] (Eterna round: R96, puzzle: Exclusion NG 3)”, for which the “apparent KD of MS2 coat protein” value was 38.5 nM (input ligand: FMN 200 uM), 28.3 nM under setting [1] and 38.1 nM (input ligand: none).

For the sequence “ACAUGAGGAUCACCCAUGUGACAAGAAUGGCUGAUACAGAGACAGGAUAUAGGUGCAUAUCUAACCUAGAAGGGUCAUGACUGG [Deportation 73 - Jieux - Exclusion NG 3] (Eterna round: R96, puzzle: Exclusion NG 3)”, under setting [1], the “apparent KD of MS2 coat protein” value turned out to be 26.6 nM.

On to “ACAUGAGGAUCACCCAUGUGACCACAAUGGCUGAUGUAGAAACAGGAUAUUCGUGAAUAUCUAACGAAGAAGGGUUAUGACUGG [Deportation 64 - Jieux - Exclusion NG 3] (Eterna round: R96, puzzle: Exclusion NG 3)”, for which the “apparent KD of MS2 coat protein” value is, setting by setting: (input ligand: FMN 200 uM) 62.9 nM; under setting [1], 61.7 nM; (input ligand: none) 72.1 nM.

“ACAUGAGGAUCACCCAUGUGCACGUAAUGGCUCAUGUAGAGAGAGGAUAUGCGUGACGAACGAGCGCAGAAGGCUCAAGACUGG [Deportation 15 - Jieux - Exclusion NG 3] (Eterna round: R96, puzzle: Exclusion NG 3)”: the “apparent KD of MS2 coat protein” value (input ligand: FMN 200 uM) was found to be 114 nM, the “apparent KD of MS2 coat protein” value under setting [1] amounted to 66.2 nM and the “apparent KD of MS2 coat protein” value (input ligand: none) is 73.1 nM.

Turning to “ACAUGAGGAUCACCCAUGUGCACGUAAUGGCUCAUGUAGAGUGAGGAUAUGUGAGACGAACGAGAACAGAAGGCACAAGACAGG [Deportation 8 - Jieux - Exclusion NG 3] (Eterna round: R96, puzzle: Exclusion NG 3)”, the “apparent KD of MS2 coat protein” value amounted to 106 nM (input ligand: FMN 200 uM), 92.8 nM under setting [1] and 116 nM (input ligand: none).

Consider “ACAUGAGGAUCACCCAUGUUUAUUGGGUACUAUACUAACAGCAAGGAUAUGCAAAUUUUUUUUACGCAGAAGGUGCAGGAACCC [JR_ExcNG3_Sub069] (Eterna round: R96, puzzle: Exclusion NG 3)”, for which the “apparent KD of MS2 coat protein” value was 38.3 nM (input ligand: FMN 200 uM), 33.1 nM under setting [1] and 52.8 nM (input ligand: none).

On to “ACAUGAGGAUCACCCAUGUUUGGUUGGUUUUCUCCGGCUGUUGAGGAUAUAGUCCGGUAUCCGCGCUAGAAGGUGAGGGUUGGC [Aenatbe mod 8] (Eterna round: R96, puzzle: Exclusion NG 3)”, for which the “apparent KD of MS2 coat protein” value came out at 123 nM (input ligand: FMN 200 uM), 123 nM under setting [1] and 131 nM (input ligand: none).

Turning to “ACAUGCUUAAUCUGUAUGAACAUGAGGAUCACCCAUGUAUAAGGGAAUUCUUUUGGGUUUUUUAUUGCUCGUCUUAU [JR_STOV1_Sub022] (Eterna round: R97, puzzle: Sensor, turn-off variant 1)”, the “apparent KD of MS2 coat protein” value came out at 379 nM (input ligand: FMN 200 uM) and 360 nM (input ligand: none).

Consider “ACAUGGAAGCAGGAUAUGCUUGUUUAAUUGUUUGCAGAAGGGCUAACAUGAGGAUCACCCAUGUAAGAGGUCUA [JR_E6_Sub062] (puzzle: Exclusion 6)”, for which the “apparent KD of MS2 coat protein” value (Eterna round: R95, input ligand: microRNA oligo, concentration not stated) came to 16.8 nM.

For “ACAUGUAAUGCAGGAUAUGGGACACAUGAGGAUCACCCAUGUGACCAGAUGUAAUGCUAAGAGUCUCAGAAGGGUAUGUACAUG [Ex NG2 #48] (Eterna round: R96, puzzle: Exclusion NG 2)”, the “apparent KD of MS2 coat protein” value by setting is: (input ligand: FMN 200 uM) 17.8 nM; under setting [1], 13.2 nM; (input ligand: none) 17.8 nM.

In the case of “ACAUGUCAUCGAGGAUAUUGCACACAUGAGGAUCACCCAUGUAUUCGGUUGCUCUUGCGUGAGUUCGAGAAGGCGAUGUACAUU [Ex NG2 #85] (Eterna round: R96, puzzle: Exclusion NG 2)”, the “apparent KD of MS2 coat protein” value is, setting by setting: (input ligand: FMN 200 uM) 134 nM; under setting [1], 215 nM; (input ligand: none) 262 nM.

Turning to “ACAUGUCAUCGAGGAUAUUGGACACAUGAGGAUCACCCAUGUACUCGGAUGCUCUACCAUGAGUUCGAGAAGGCGAUGUACAUU [Ex NG2 #78] (Eterna round: R96, puzzle: Exclusion NG 2)”, the “apparent KD of MS2 coat protein” value is 31.9 nM (input ligand: FMN 200 uM), 94.3 nM under setting [1] and 181 nM (input ligand: none).

As to “ACAUGUCAUUGAGGAUAUUGCACACAUGAGGAUCACCCAUGUAUACGGUUGCUCUUGCGUGAGUUCGAGAAGGCGAUGUACAUU [Ex NG2 #87] (Eterna round: R96, puzzle: Exclusion NG 2)”, the “apparent KD of MS2 coat protein” value is, setting by setting: (input ligand: FMN 200 uM) 356 nM; under setting [1], 168 nM; (input ligand: none) 159 nM.

As for “ACAUGUGUUGUAGGAUAUAGGAUACAUGAGGAUCACCCAUGUGGAUUCAUGUCUAUGGAAACGUCCUAGAAGGACGACAACAUG [Ex NG2 #21] (Eterna round: R96, puzzle: Exclusion NG 2)”, the “apparent KD of MS2 coat protein” value is, setting by setting: (input ligand: FMN 200 uM) 120 nM; under setting [1], 56 nM; (input ligand: none) 90.5 nM.

Regarding “ACAUGUUAUGUAGGAUAUUUUACACAUGAGGAUCACCCAUGUAACCGGAGGCUUUACUAUGAGUAAGAGAAGGGUAUGAACAUG [Ex NG2 #64] (Eterna round: R96, puzzle: Exclusion NG 2)”, the “apparent KD of MS2 coat protein” value (input ligand: FMN 200 uM) turned out to be 92.5 nM, the “apparent KD of MS2 coat protein” value under setting [1] is 42.2 nM and the “apparent KD of MS2 coat protein” value (input ligand: none) is 83.7 nM.

In the case of “ACAUGUUGCGCAGGAUAUGAGACACAUGAGGAUCACCCAUGUGGCUACAUGUCAUACCAAGCGUCUCAGAAGGGUGUUAACAUG [Ex NG2 #35] (Eterna round: R96, puzzle: Exclusion NG 2)”, the “apparent KD of MS2 coat protein” value turned out to be 23.5 nM (input ligand: FMN 200 uM), 20.5 nM under setting [1] and 28.4 nM (input ligand: none).

Regarding “ACAUUCAGAGGAUAUGCGCAUAGAUAAGACUUUUUUUUUUAACAUGAGGAUCACCCAUGUAGAAGGCUGUAACA [Ex2 #49] (Eterna round: R97, puzzle: Exclusion 2)”, the “apparent KD of MS2 coat protein” value by setting is: (input ligand: FMN 200 uM) 21.4 nM; (input ligand: none) 21.7 nM.

In the case of “ACCAGAAUAGGAUAUAACGAAAAGGACAUGAGGAUCACCCAUGUGACUACUAUUCCCUUGUUAGAAGGAUUGCGGG [Eternabot (L2) Solution 48] (Eterna round: R97, puzzle: Exclusion 5)”, the “apparent KD of MS2 coat protein” value (input ligand: FMN 200 uM) was found to be 32 nM and the “apparent KD of MS2 coat protein” value (input ligand: none) is 24.9 nM.

“ACCAUUUCGGUGGUCUAAGAACAUGAGGAUCACCCAUGUAUCGAGGAUAUCCCAAGCAGACUAUGGGAGAAGGUGAACAGAAGG [Eternabot solution 24] (Eterna round: R96, puzzle: Exclusion NG 3)”: the “apparent KD of MS2 coat protein” value amounted to 40.1 nM (input ligand: FMN 200 uM), 25.6 nM under setting [1] and 41.7 nM (input ligand: none).

With “ACCGCCGGCGUAAGGAUAUGUGAAGAAAUCCCUUUACAGAAGGUACAUGAGGAUCACCCAUGUCUUCUAGGACG [Eternabot (L1) Solution 96] (Eterna round: R97, puzzle: Brourd's mod of Exclusion 4)”, the “apparent KD of MS2 coat protein” value reads like this: (input ligand: FMN 200 uM) 21.3 nM; (input ligand: none) 22.3 nM.

Regarding “ACCGUGAGGGUGAGGAUAUUCUGAGGGACGCCCUGGAAGAAGGUACAUGAGGAUCACCCAUGUGGCCUCAGACU [Eternabot (L2) Solution 99] (Eterna round: R97, puzzle: Brourd's mod of Exclusion 4)”, the “apparent KD of MS2 coat protein” value by setting is: (input ligand: FMN 200 uM) 35.8 nM; (input ligand: none) 32.4 nM.

As for “ACCUAAAAGCUAGGAUAUACAUGAGGAUCACCCAUGUACACAGGAAGACUAACCUGUGGACUCAUGUAGAAGGAGCAUGACAAA [Raengearle] (Eterna round: R96, puzzle: Exclusion NG 2)”, the “apparent KD of MS2 coat protein” value stood at 117 nM (input ligand: FMN 200 uM), 349 nM under setting [1] and 283 nM (input ligand: none).

As for “ACCUAAAAGCUAGGAUAUACAUGAGGAUCACCCAUGUACACAGGUAGACUAACCUGUGGACUCAUGUAGAAGGAGCAUGACAAA [Erongebe] (Eterna round: R96, puzzle: Exclusion NG 2)”, the “apparent KD of MS2 coat protein” value is, setting by setting: (input ligand: FMN 200 uM) 111 nM; under setting [1], 240 nM; (input ligand: none) 363 nM.

Turning to “ACCUCACAUGAGGAUCACCCAUGUCAGGAUAUAAAAGGAGGGCGAGGCAGCCAGGAAGUUAGAAGGGACACGCU [EX1 B.11] (Eterna round: R97, puzzle: Exclusion 1)”, the “apparent KD of MS2 coat protein” value reads like this: (input ligand: FMN 200 uM) 21.2 nM; (input ligand: none) 23.7 nM.

Take “ACCUCACAUGAGGAUCACCCAUGUCAGGAUAUCUAAUGUAGUCGCGUUCCCGACGCUAAGAGAAGGGACGUUGA [EX1 #36] (Eterna round: R97, puzzle: Exclusion 1)”: the “apparent KD of MS2 coat protein” value came to 15.8 nM (input ligand: FMN 200 uM) and 15 nM (input ligand: none).

For “ACCUCACAUGAGGAUCACCCAUGUCAGGAUAUCUAUUAUUGCAGCAAUCCUGUCGCUGAGAGAAGGGACAUUAA [EX1 #27] (Eterna round: R97, puzzle: Exclusion 1)”, the “apparent KD of MS2 coat protein” value reads like this: (input ligand: FMN 200 uM) 32.2 nM; (input ligand: none) 33 nM.
